One molecule from CN118184778A can be followed below.

In this assay the target is 重组AD7c-NTP蛋白 (human). The experiment in a line: indirect ELISA; plate coated with 1 μg/mL recombinant AD7c-NTP, antibody serially diluted, HRP goat anti-mouse IgG, OD450.
Sequence of 重组AD7c-NTP蛋白 (human) (chain, as listed by the source): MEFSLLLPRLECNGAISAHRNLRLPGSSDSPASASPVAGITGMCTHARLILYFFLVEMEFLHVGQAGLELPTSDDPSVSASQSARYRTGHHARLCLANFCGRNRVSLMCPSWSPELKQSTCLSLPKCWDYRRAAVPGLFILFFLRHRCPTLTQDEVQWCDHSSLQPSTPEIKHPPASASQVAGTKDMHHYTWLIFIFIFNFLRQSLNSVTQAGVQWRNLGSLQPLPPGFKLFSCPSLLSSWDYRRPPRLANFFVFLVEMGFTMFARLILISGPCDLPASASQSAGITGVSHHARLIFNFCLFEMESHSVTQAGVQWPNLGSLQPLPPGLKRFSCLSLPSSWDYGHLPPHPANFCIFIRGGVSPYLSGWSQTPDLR

B1: 单克隆抗体1D9 (AD7c-NTP单克隆抗体A1) (antibody, V domains shown)
VH: DVQLQESGPGLVKPSQSLSLTCTVTDYSITSDYAWNWIRQFPGNKLEWMGYISYSGSTNYNPSLKSRFSITRDTSKNQFFLQLNSVTTEDTATYYCAGSELYYGYHYVMDYWGQGTSVTVSS
VL: ENVLTQSPAIMSASLGQKVTMTCSASSSVSSSYLHWYQQRSGASPKPLIHRTSNLASGVPARFSGSGSGTSYSLTISSVEAEDDATYYCQQWSGYPLTFGAGTKLELK
For the molecule B1, the 最小反应极限 was determined as 9.77 ng/mL.
